The values that follow come from patent US20260216326A1 (PROMETHEUS BIOSCIENCES, published 2026).

Where a chain is given by its changes, count along the chain named.

For this assay, the target named is T1, human TL1A (Fitzgerald #30R-AT070) (human, UniProt O95150 72-251, limits assumed).
T1 construct: Coated on the ELISA plate at 1 ug/mL; also called TNFSF15
T1 sequence (looked up): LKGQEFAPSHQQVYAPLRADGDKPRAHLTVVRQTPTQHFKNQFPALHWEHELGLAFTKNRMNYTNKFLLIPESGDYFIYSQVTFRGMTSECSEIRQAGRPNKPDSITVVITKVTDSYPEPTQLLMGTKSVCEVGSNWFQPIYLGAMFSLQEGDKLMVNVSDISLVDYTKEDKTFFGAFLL
As to the kind of experiment: ELISA titration, coated human TL1A, culture supernatant. (In an ELISA, binding on a coated surface is turned into a signal by an enzyme label.)

B1: A148 (antibody, human IgG1, V domains shown)
VH: QVQLVQSGAEVKKPGASVKVSCKASGFDIQDTYMHWVRQAPGQGLEWMGRIEPASGHIKYDPKFQVRVTMTRDTSTSTVYMELSSLRSEDTAVYYCARSGGLPDWWGQGTTVTVSS
VL: EIVLTQSPGTLSLSPGERATLSCRASSSVSYMYWYQQKPGQAPRPLIYATSNLASGIPDRFSGSGSGTDFTLTISRLEPEDFAVYYCQQWEGNPRTFGGGTKLEIK
notes: human IgG1/kappa (pFuse vectors), culture supernatant
As for B1, the Kd turned out to be 0.046 nM.

B2: A63 (antibody, human IgG1, V domains shown)
VH: B1 VH with I58V, V66G
VL: B1 VL with P45L
notes: as for B1
B2: binding was characterised by a dissociation constant (Kd) of 0.132 nM.

B3: A57 (antibody, human IgG1, V domains shown)
VH: B1 VH with A40R, V66G
VL: B1 VL with P45L
notes: as for B1
Molecule B3 displayed an equilibrium dissociation constant (Kd) of 0.191 nM.

B4: A61 (antibody, human IgG1, V domains shown)
VH: B1 VH with M48I, V66G
VL: B1 VL with P45L
notes: as for B1
B4 registered a Kd of 0.127 nM.

B5: A66 (antibody, human IgG1, V domains shown)
VH: B1 VH with V66G, M70I
VL: B1 VL with P45L
notes: as for B1
B5 returned a dissociation constant Kd of 0.15 nM.

B6: A33 (antibody, V domains shown)
VH: B1 VH with Q1D, V66G
VL: B1 VL with P45L
Consider B6, for which binding was characterised by a dissociation constant (Kd) of 0.081 nM.

B7: A62 (antibody, human IgG1, V domains shown)
VH: B1 VH with M48I, E52D, V66G
VL: B1 VL with P45L
notes: as for B1
As for B7, the Kd was 0.15 nM.

B8: A65 (antibody, human IgG1, V domains shown)
VH: B1 VH with V66G, V68A
VL: B1 VL with P45L
notes: as for B1
In the case of B8, the dissociation constant (Kd) is 0.097 nM.

B9: A29 (antibody, human IgG1, V domains shown)
VH: QVQLVQSGAEVKKPGASVKVSCKASGFDIQDTYMHWVKQRPGQGLEWIGRIDPASGHTKYDPKFQVRATITTDTSTSTAYLELSSLRSEDTAVYYCARSGGLPDVWGQGTTVTVSS
VL: B1 VL with L46W
notes: as for B1
In turn, B9 displayed a Kd of 0.065 nM.

B10: A32 (antibody, V domains shown)
VH: B1 VH with Q1D, V66G
VL: B1 VL with L46W
Turning to B10, binding was characterised by a dissociation constant (Kd) of 0.111 nM.

B11: A64 (antibody, human IgG1, V domains shown)
VH: B1 VH
VL: B1 VL with P45L
notes: as for B1
As for B11, binding was put at a Kd of 0.09 nM.

B12: A58 (antibody, human IgG1, V domains shown)
VH: B1 VH with R38K, V66G
VL: B1 VL with P45L
notes: as for B1
Take B12: the Kd is 0.112 nM.

B13: A60 (antibody, human IgG1, V domains shown)
VH: B1 VH with E52D, V66G
VL: B1 VL with P45L
notes: as for B1
Take B13: the Kd is 0.168 nM.

B14: A67 (antibody, human IgG1, V domains shown)
VH: B1 VH with V68A
VL: B1 VL with P45L
notes: as for B1
Regarding B14, the affinity, expressed as Kd, was 0.089 nM.

B15: A59 (antibody, human IgG1, V domains shown)
VH: B1 VH with R38K, A40R, V66G
VL: B1 VL with P45L
notes: as for B1
As to B15, the affinity, expressed as Kd, was 0.136 nM.

B16: A31 (antibody, human IgG1, V domains shown)
VH: B1 VH with V66G
VL: B1 VL with L46W
notes: as for B1
B16 showed a Kd of 0.092 nM.

A word on the Kd: it is the free concentration of one partner at which half of the binding sites on the other are occupied at equilibrium, for simple one-to-one binding. A lower Kd goes with higher affinity.
